Earlier results as cited in patent US20050181485A1, “Cellulose digesting enzyme gene and utilization of the gene” (priority 2002, published 2005).
Read-outs that look alike come from different tables or passages of the source.

Details: known cellobiose dehydrogenases

B1: Phanerochaete chrysosporium: known cellobiose dehydrogenase reported by Henriksson et al. (protein, UniProt Q01738 19-773, looked up)
Cellobiose dehydrogenase: QSASQFTDPTTGFQFTGITDPVHDVTYGFVFPPLATSGAQSTEFIGEVVAPIASKWIGIALGGAMNNDLLLVAWANGNQIVSSTRWATGYVQPTAYTGTATLTTLPETTINSTHWKWVFRCQGCTEWNNGGGIDVTSQGVLAWAFSNVAVDDPSDPQSTFSEHTDFGFFGIDYSTAHSANYQNYLNGDSGNPTTTSTKPTSTSSSVTTGPTVSATPYDYIIVGAGPGGIIAADRLSEAGKKVLLLERGGPSTKQTGGTYVAPWATSSGLTKFDIPGLFESLFTDSNPFWWCKDITVFAGCLVGGGTSVNGALYWYPNDGDFSSSVGWPSSWTNHAPYTSKLSSRLPSTDHPSTDGQRYLEQSFNVVSQLLKGQGYNQATINDNPNYKDHVFGYSAFDFLNGKRAGPVATYLQTALARPNFTFKTNVMVSNVVRNGSQILGVQTNDPTLGPNGFIPVTPKGRVILSAGAFGTSRILFQSGIGPTDMIQTVQSNPTAAAALPPQNQWINLPVGMNAQDNPSINLVFTHPSIDAYENWADVWSNPRPADAAQYLANQSGVFAGASPKLNFWRAYSGSDGFTRYAQGTVRPGAASVNSSLPYNASQIFTITVYLSTGIQSRGRIGIDAALRGTVLTPPWLVNPVDKTVLLQALHDVVSNIGSIPGLTMITPDVTQTLEEYVDAYDPATMNSNHWVSSTTIGSSPQSAVVDSNVKVFGTNNLFIVDAGIIPHLPTGNPQGTLMSAAEQAAAKILALAGGP
Q: With B1 as the molecule, how does the Isoelectric point read?
A: 4.2

Q: And the “Optimal pH” value?
A: 5.0

Q: What about the Optimal temperature of the same molecule?
A: 50 °C

Q: What about the Isoelectric point (listed as cellobiose dehydrogenase derived from Phanerochaete chrysosporium) of the same molecule?
A: about 4.2
